Source: PMC4414246

Target: U1A L49K (UniProt P09012 10-89, L49K)
Assay: fluorescence polarization

Chain of U1A L49K (P09012 10-89 L49K): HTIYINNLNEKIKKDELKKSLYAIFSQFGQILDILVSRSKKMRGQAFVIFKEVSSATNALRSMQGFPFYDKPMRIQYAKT

GGCAGAUCUGAGCCUGGGAGCUCUCUGCC (structured_RNA) [TAR RNA]
Kd: 3.9 ± 0.4 µM
